The record followed here is PMC13483476.

Assay [1] addresses JR-FL.v6 V3 peptide (HIV-1 clade B isolate JR-FL). Kind of assay: SPR. In general terms: In SPR one partner is held on a chip, and binding of the other changes the refractive index at the surface.
The target is the same in assay [2]. The assay is described as follows: differential scanning fluorimetry.

In assay [1], 19b antigen-binding fragment (Fab) returned a Kd of 1.74 nM. The increase of the transition temperature of the Fab when bound to the peptide in assay [2] is 6.3 °C.

In general, Kd refers to the concentration at which binding is half-saturated. Higher therefore signals a looser complex.
